B1: Multidrug resistance associated protein (Homo sapiens), Q96QA9 (protein)
chain: MDALCGSGELGSKFWDSNLSVHTENPDLTPCFQNSLLAWVPCIYLWVALPCYLLYLRHHCRGYIILSHLSKLKMVLGVLLWCVSWADLFYSFHGLVHGRAPAPVFFVTPLVVGVTMLLATLLIQYERLQGVQSSGVLIIFWFLCVVCAIVPFRSKILLAKAEGEISDPFRFTTFYIHFALVLSALILACFREKPPFFSAKNVDPNPYPETSAGFLSRLFFWWFTKMAIYGYRHPLEEKDLWSLKEEDRSQMVVQQLLEAWRKQEKQTARHKASAAPGKNASGEDEVLLGARPRPRKPSFLKALLATFGSSFLISACFKLIQDLLSFINPQLLSILIRFISNPMAPSWWGFLVAGLMFLCSMMQSLILQHYYHYIFVTGVKFRTGIMGVIYRKALVITNSVKRASTVGEIVNLMSVDAQRFMDLAPFLNLLWSAPLQIILAIYFLWQNLGPSVLAGVAFMVLLIPLNGAVAVKMRAFQVKQMKLKDSRIKLMSEILNGIKVLKLYAWEPSFLKQVEGIRQGELQLLRTAAYLHTTTTFTWMCSPFLVTLITLWVYVYVDPNNVLDAEKAFVSVSLFNILRLPLNMLPQLISNLTQASVSLKRIQQFLSQEELDPQSVERKTISPGYAITIHSGTFTWAQDLPPTLHSLDIQVPKGALVAVVGPVGCGKSSLVSALLGEMEKLEGKVHMKGSVAYVPQQAWIQNCTLQENVLFGKALNPKRYQQTLEACALLADLEMLPGGDQTEIGEKGINLSGGQRQRVSLARAVYSDADIFLLDDPLSAVDSHVAKHIFDHVIGPEGVLAGKTRVLVTHGISFLPQTDFIIVLADGQVSEMGPYPALLQRNGSFANFLCNYAPDEDQGHLEDSWTALEGAEDKEALLIEDTLSNHTDLTDNDPVTYVVQKQFMRQLSALSSDGEGQGRPVPRRHLGPSEKVQVTEAKADGALTQEEKAAIGTVELSVFWDYAKAVGLCTTLAICLLYVGQSAAAIGANVWLSAWTNDAMADSRQNNTSLRLGVYAALGILQGFLVMLAAMAMAAGGIQAARVLHQALLHNKIRSPQSFFDTTPSGRILNCFSKDIYVVDEVLAPVILMLLNSFFNAISTLVVIMASTPLFTVVILPLAVLYTLVQRFYAATSRQLKRLESVSRSPIYSHFSETVTGASVIRAYNRSRDFEIISDTKVDANQRSCYPYIISNRWLSIGVEFVGNCVVLFAALFAVIGRSSLNPGLVGLSVSYSLQVTFALNWMIRMMSDLESNIVAVERVKEYSKTETEAPWVVEGSRPPEGWPPRGEVEFRNYSVRYRPGLDLVLRDLSLHVHGGEKVGIVGRTGAGKSSMTLCLFRILEAAKGEIRIDGLNVADIGDPILFSGTLRMNLDPFGSYSEEDIWWALELSHLHTFVSSQPAGLDFQCSEGGENLSVGQRQLVCLARALLRKSRILVLDEATAAIDLETDNLIQATIRTQFDTCTVLTIAHRLNTIMDYTRVLVLDKGVVAEFDSPANLIAARGIFYGMARDAGLA
B2: ATP-binding cassette sub-family C member 2 (Homo sapiens) (protein)
chain: MLEKFCNSTFWNSSFLDSPEADLPLCFEQTVLVWIPLGYLWLLAPWQLLHVYKSRTKRSSTTKLYLAKQVFVGFLLILAAIELALVLTEDSGQATVPAVRYTNPSLYLGTWLLVLLIQYSRQWCVQKNSWFLSLFWILSILCGTFQFQTLIRTLLQGDNSNLAYSCLFFISYGFQILILIFSAFSENNESSNNPSSIASFLSSITYSWYDSIILKGYKRPLTLEDVWEVDEEMKTKTLVSKFETHMKRELQKARRALQRRQEKSSQQNSGARLPGLNKNQSQSQDALVLEDVEKKKKKSGTKKDVPKSWLMKALFKTFYMVLLKSFLLKLVNDIFTFVSPQLLKLLISFASDRDTYLWIGYLCAILLFTAALIQSFCLQCYFQLCFKLGVKVRTAIMASVYKKALTLSNLARKEYTVGETVNLMSVDAQKLMDVTNFMHMLWSSVLQIVLSIFFLWRELGPSVLAGVGVMVLVIPINAILSTKSKTIQVKNMKNKDKRLKIMNEILSGIKILKYFAWEPSFRDQVQNLRKKELKNLLAFSQLQCVVIFVFQLTPVLVSVVTFSVYVLVDSNNILDAQKAFTSITLFNILRFPLSMLPMMISSMLQASVSTERLEKYLGGDDLDTSAIRHDCNFDKAMQFSEASFTWEHDSEATVRDVNLDIMAGQLVAVIGPVGSGKSSLISAMLGEMENVHGHITIKGTTAYVPQQSWIQNGTIKDNILFGTEFNEKRYQQVLEACALLPDLEMLPGGDLAEIGEKGINLSGGQKQRISLARATYQNLDIYLLDDPLSAVDAHVGKHIFNKVLGPNGLLKGKTRLLVTHSMHFLPQVDEIVVLGNGTIVEKGSYSALLAKKGEFAKNLKTFLRHTGPEEEATVHDGSEEEDDDYGLISSVEEIPEDAASITMRRENSFRRTLSRSSRSNGRHLKSLRNSLKTRNVNSLKEDEELVKGQKLIKKEFIETGKVKFSIYLEYLQAIGLFSIFFIILAFVMNSVAFIGSNLWLSAWTSDSKIFNSTDYPASQRDMRVGVYGALGLAQGIFVFIAHFWSAFGFVHASNILHKQLLNNILRAPMRFFDTTPTGRIVNRFAGDISTVDDTLPQSLRSWITCFLGIISTLVMICMATPVFTIIVIPLGIIYVSVQMFYVSTSRQLRRLDSVTRSPIYSHFSETVSGLPVIRAFEHQQRFLKHNEVRIDTNQKCVFSWITSNRWLAIRLELVGNLTVFFSALMMVIYRDTLSGDTVGFVLSNALNITQTLNWLVRMTSEIETNIVAVERITEYTKVENEAPWVTDKRPPPDWPSKGKIQFNNYQVRYRPELDLVLRGITCDIGSMEKIGVVGRTGAGKSSLTNCLFRILEAAGGQIIIDGVDIASIGLHDLREKLTIIPQDPILFSGSLRMNLDPFNNYSDEEIWKALELAHLKSFVASLQLGLSHEVTEAGGNLSIGQRQLLCLGRALLRKSKILVLDEATAAVDLETDNLIQTTIQNEFAHCTVITIAHRLHTIMDSDKVMVLDNGKIIECGSPEELLQIPGPFYFMAKEAGIENVNSTKF

How the values were obtained:
[1] = substrate: C#C[C@]1(O)CC[C@H]2[C@@H]3CCc4cc(O[C@@H]5O[C@H](C(=O)O)[C@@H](O)[C@H](O)[C@H]5O)ccc4[C@H]3CC[C@@]21C; experiment: TP_TRANSPORTER: uptake in membrane vesicle from MRP3-expressing Sf9 cells; assay type: functional, cell membranes
[2] = substrate: [H][C@@]12CC[C@@](O)(C#C)[C@@]1(C)CC[C@]1([H])c3ccc(O[C@@H]4O[C@H](C(=O)O)[C@@H](O)[C@H](O)[C@H]4O)cc3CC[C@@]21[H]; experiment: TP_TRANSPORTER: uptake in membrane vesicles from MRP2-expressing Sf9 cells; assay type: functional, cell membranes, Membrane vesicle

Protein	Km [1]	Km [2]
B1	9.2 µM	–
B2	–	35.1 µM

Source: ChEMBL document CHEMBL2074000, “Transport of ethinylestradiol glucuronide and ethinylestradiol sulfate by the multidrug resistance proteins MRP1, MRP2, and MRP3” (J Pharmacol Exp Ther, 2004)
